B1: Complement factor H (Homo sapiens), P08603 (parent)
chain: MRLLAKIICLMLWAICVAEDCNELPPRRNTEILTGSWSDQTYPEGTQAIYKCRPGYRSLGNVIMVCRKGEWVALNPLRKCQKRPCGHPGDTPFGTFTLTGGNVFEYGVKAVYTCNEGYQLLGEINYRECDTDGWTNDIPICEVVKCLPVTAPENGKIVSSAMEPDREYHFGQAVRFVCNSGYKIEGDEEMHCSDDGFWSKEKPKCVEISCKSPDVINGSPISQKIIYKENERFQYKCNMGYEYSERGDAVCTESGWRPLPSCEEKSCDNPYIPNGDYSPLRIKHRTGDEITYQCRNGFYPATRGNTAKCTSTGWIPAPRCTLKPCDYPDIKHGGLYHENMRRPYFPVAVGKYYSYYCDEHFETPSGSYWDHIHCTQDGWSPAVPCLRKCYFPYLENGYNQNYGRKFVQGKSIDVACHPGYALPKAQTTVTCMENGWSPTPRCIRVKTCSKSSIDIENGFISESQYTYALKEKAKYQCKLGYVTADGETSGSITCGKDGWSAQPTCIKSCDIPVFMNARTKNDFTWFKLNDTLDYECHDGYESNTGSTTGSIVCGYNGWSDLPICYERECELPKIDVHLVPDRKKDQYKVGEVLKFSCKPGFTIVGPNSVQCYHFGLSPDLPICKEQVQSCGPPPELLNGNVKEKTKEEYGHSEVVEYYCNPRFLMKGPNKIQCVDGEWTTLPVCIVEESTCGDIPELEHGWAQLSSPPYYYGDSVEFNCSESFTMIGHRSITCIHGVWTQLPQCVAIDKLKKCKSSNLIILEEHLKNKKEFDHNSNIRYRCRGKEGWIHTVCINGRWDPEVNCSMAQIQLCPPPPQIPNSHNMTTTLNYRDGEKVSVLCQENYLIQEGEEITCKDGRWQSIPLCVEKIPCSQPPQIEHGTINSSRSSQESYAHGTKLSYTCEGGFRISEENETTCYMGKWSSPPQCEGLPCKSPPEISHGVVAHMSDSYQYGEEVTYKCFEGFGIDGPAIAKCLGEKWSHPPSCIKTDCLSLPSFENAIPMGEKKDVYKAGEQVTYTCATYYKMDGASNVTCINSRWTGRPTCRDTSCVNPPTVQNAYIVSRQMSKYPSGERVRYQCRSPYEMFGDEEVMCLNGNWTEPPQCKDSTGKCGPPPPIDNGDITSFPLSVYAPASSVEYQCQNLYQLEGNKRITCRNGQWSEPPKCLHPCVISREIMENYNIALRWTAKQKLYSRTGESVEFVCKRGYRLSSRSHTLRTTCWDGKLEYPTCAKR
partner: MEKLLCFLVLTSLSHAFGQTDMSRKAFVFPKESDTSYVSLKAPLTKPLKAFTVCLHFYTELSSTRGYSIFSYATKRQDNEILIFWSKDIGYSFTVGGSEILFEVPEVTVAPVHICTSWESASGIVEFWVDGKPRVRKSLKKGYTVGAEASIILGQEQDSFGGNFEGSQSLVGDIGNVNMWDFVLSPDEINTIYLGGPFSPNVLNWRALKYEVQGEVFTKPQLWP
B2: Complement factor H-related protein 4 (Homo sapiens), Q92496-1 (parent)
chain: MLLLINVILTLWVSCANGQEVKPCDFPEIQHGGLYYKSLRRLYFPAAAGQSYSYYCDQNFVTPSGSYWDYIHCTQDGWSPTVPCLRTCSKSDVEIENGFISESSSIYILNEETQYNCKPGYATAEGNSSGSITCLQNGWSTQPICIKFCDMPVFENSRAKSNGMWFKLHDTLDYECYDGYESSYGNTTDSIVCGEDGWSHLPTCYNSSENCGPPPPISNGDTTSFPQKVYLPWSRVEYQCQSYYELQGSKYVTCSNGDWSEPPRCISMKPCEFPEIQHGHLYYENTRRPYFPVATGQSYSYYCDQNFVTPSGSYWDYIHCTQDGWLPTVPCLRTCSKSDIEIENGFISESSSIYILNKEIQYKCKPGYATADGNSSGSITCLQNGWSAQPICIKFCDMPVFENSRAKSNGMRFKLHDTLDYECYDGYEISYGNTTGSIVCGEDGWSHFPTCYNSSEKCGPPPPISNGDTTSFLLKVYVPQSRVEYQCQSYYELQGSNYVTCSNGEWSEPPRCIHPCIITEENMNKNNIQLKGKSDIKYYAKTGDTIEFMCKLGYNANTSVLSFQAVCREGIVEYPRCE
partner: B1 partner

Variants of: B1
Details: with crp_human CRP

Variant	effect of a mutation on the interaction
E338K	disrupting interaction strength

Variants of: B2
Details: with crp_human CRP

Variant	effect of a mutation on the interaction
E284K	increasing interaction strength

Variants of: B2
Details: with crp_human CRP
Remark: another data set of the same source

Variant	effect of a mutation on the interaction
K37E	decreasing interaction strength

Variants of: B2
Details: with crp_human CRP
Remark: another data set of the same source

Variant	effect of a mutation on the interaction
R40A;R41A	decreasing interaction strength
L39A	decreasing interaction strength
S38A;L39A	disrupting interaction strength

Variants of: B2
Details: with crp_human CRP
Remark: another data set of the same source

Variant	effect of a mutation on the interaction
R40A;R41A	disrupting interaction strength
L39A	with no effect
S38A;L39A	decreasing interaction strength

Source: IntAct's records for PubMed 20042240
